Here are results for two substances from patent US20260217797A1.

For experiment [1], the target named is SARS-CoV-2 L452R RBD (Epsilon) (SARS-CoV-2) (UniProt P0DTC2). In words: Octet BLI single point, monovalent.
The target of experiment [2] is SARS-CoV-2 B.1.1.7 N501Y (Alpha) RBD (SARS-CoV-2) (UniProt P0DTC2). In words: Octet BLI single point, monovalent. Background: Biolayer interferometry detects binding as a change in optical thickness at a sensor tip.

The term Kd denotes the constant that tells how readily two partners part at equilibrium. For RGN10933 (antibody), the dissociation constant Kd in experiment [1] amounted to 9.52 nM; in experiment [2] it was 6.57 nM.
The corresponding values for RGN10987 (antibody) are 17.4 nM and 15.1 nM.
